Positions count from the first letter of the chain named. Names may count otherwise. Like-named read-outs stand apart in the source and are kept apart here. Blank lines part the entries; values can stand above or below the binder they belong to.
Legend:
hCD32a-H131-His = molecular target: T1, hCD32a-H131-His (human, UniProt P12318 34-217); assay: SPR
T1 construct: Generated in house; captured on anti-His Fab; also called FcgRIIa-H131
T1 sequence: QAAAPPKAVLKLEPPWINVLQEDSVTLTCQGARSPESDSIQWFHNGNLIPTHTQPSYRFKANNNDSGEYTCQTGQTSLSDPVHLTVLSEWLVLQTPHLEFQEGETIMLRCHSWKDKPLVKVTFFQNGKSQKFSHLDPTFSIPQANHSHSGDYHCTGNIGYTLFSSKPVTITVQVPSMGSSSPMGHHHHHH
Description: (§1) FCGR BINDING SPR: FcgR binding can be measured in vitro using purified FcgRs using methods such as BIAcore™ surface plasmon resonance (SPR). One method tests the binding of purified antibodies to His-tagged FcgR proteins (FcgR-His) which are captured on the immobilized Fab fragment of an anti-His antibody. These experiments are performed on either a BIAcore™ T100 or BIAcore™ T200 instrument (GE Healthcare Life Sciences, Marlborough, Mass.) at 25° C. The Fab fragment from a murine anti-6×His antibody (generated in house) is immobilized on a CMS sensor chip using standard ethyl(dimethylaminopropyl) carbodiimide (EDC)/N-hydroxysuccinimide (NHS) chemistry with ethanolamine blocking, to a density of ˜3000 RU in a running buffer of 10 mM HEPES pH 7.4, 150 mM NaCl, 3 mM EDTA, 0.05% surfactant p20 (HBS-EP+). All remaining studies are performed using a running buffer of 10 mM NaPO4, 130 mM NaCl, 0.05% p20 (PBS-T) pH 7.1. Various FcγR proteins containing a C-terminal 6× poly-histidine tag (generated in house) are captured on this surface (typically using FcgR-his protein concentration of ˜7 μg/ml) using a contact time of 30 sec at 10 μl/min. Various concentrations of purified antibody are tested for binding, for example using an association time of 120 seconds at 30 μl/min, and a dissociation time of 120 seconds at 30 μl/min. FcgR proteins tested in these studies include the “high affinity” FcgR CD64 (hFcgRI), as well as the “low affinity” FcgRs CD32a-H131 (FcgRIIa-H131), CD32a-R131 (FcgRIIa-R131), CD32b (FcgRIIb), CD16a-V158 (FcgRIIIa-V158), and CD16b-NA2 (FcgRIIIb-NA2).

hCD32a-R131-His = molecular target: T2, hCD32a-R131-His (human, UniProt P12318 34-217); assay: SPR
T2 construct: Generated in house; captured on anti-His Fab; Allele R131 as printed; the database entry may carry H at that position; also called FcgRIIa-R131
T2 sequence: T1 sequence with H134R
Description: as §1

hCD32b-His = molecular target: T3, hCD32b-His (human, UniProt P31994 43-217); assay: SPR
T3 construct: Generated in house; captured on anti-His Fab; also called FcgRIIb
T3 sequence: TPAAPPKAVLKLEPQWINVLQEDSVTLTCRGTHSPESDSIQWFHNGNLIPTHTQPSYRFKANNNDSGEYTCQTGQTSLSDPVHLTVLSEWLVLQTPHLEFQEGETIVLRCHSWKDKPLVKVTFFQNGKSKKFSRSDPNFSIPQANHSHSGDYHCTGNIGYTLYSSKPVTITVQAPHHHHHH
Description: as §1

hCD16a-V158-His = molecular target: T4, hCD16a-V158-His (human, UniProt P08637 17-208); assay: SPR
T4 construct: Generated in house; captured on anti-His Fab; Allele V158 as printed; the database entry may carry F at that position; also called FcgRIIIa-V158
T4 sequence (P08637 other isoform, or with tags, fused parts or gaps limits assumed): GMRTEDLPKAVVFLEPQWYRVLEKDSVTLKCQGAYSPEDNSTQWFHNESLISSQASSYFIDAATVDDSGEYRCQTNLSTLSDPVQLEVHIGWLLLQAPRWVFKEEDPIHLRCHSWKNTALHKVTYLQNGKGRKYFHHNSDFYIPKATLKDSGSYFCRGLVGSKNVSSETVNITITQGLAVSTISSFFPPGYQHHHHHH
Description: as §1

human-CD40 monomer [1] = molecular target: T5, human-CD40 monomer (human, UniProt P25942 21-193, limits assumed); assay: SPR, Ab captured on protein A, CD40 monomer analyte
T5 construct: also called hCD40-monomer; human-CD40-monomer protein
T5 sequence (P25942 21-193 limits assumed): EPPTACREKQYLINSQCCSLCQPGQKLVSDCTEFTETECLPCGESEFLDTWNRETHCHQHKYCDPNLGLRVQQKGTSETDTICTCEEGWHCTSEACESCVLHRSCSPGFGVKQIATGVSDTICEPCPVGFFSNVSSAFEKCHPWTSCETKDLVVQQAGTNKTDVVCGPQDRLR

hCD64-His [2] = molecular target: T6, hCD64-His (human, UniProt P12314 16-288, limits assumed); assay: SPR (BIAcore): 7 µg/ml hCD64-His captured on an anti-His Fab surface, 1 µM antibody as analyte
T6 construct: Generated in house; captured on anti-His Fab; also called hFcgRI; FcgRI
T6 sequence (P12314 other isoform, or with tags, fused parts or gaps limits assumed): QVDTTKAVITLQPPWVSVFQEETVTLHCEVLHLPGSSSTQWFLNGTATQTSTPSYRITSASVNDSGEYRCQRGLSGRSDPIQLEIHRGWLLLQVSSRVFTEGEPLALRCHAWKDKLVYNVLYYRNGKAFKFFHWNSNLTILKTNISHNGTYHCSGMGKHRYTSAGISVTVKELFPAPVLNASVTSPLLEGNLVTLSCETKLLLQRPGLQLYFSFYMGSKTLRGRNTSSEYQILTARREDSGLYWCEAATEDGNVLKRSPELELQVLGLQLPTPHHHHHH
Description: as §1

hCD64-His [3] = molecular target: T6, hCD64-His; assay: SPR
Description: as §1

[4] = molecular target: human CD40 on primary human cells (tonsillar B cells, immature dendritic cells) (human, UniProt P25942 21-277); assay: cell-based or functional assay
Chain of human CD40 on primary human cells (tonsillar B cells, immature dendritic cells) (P25942 21-277 limits assumed): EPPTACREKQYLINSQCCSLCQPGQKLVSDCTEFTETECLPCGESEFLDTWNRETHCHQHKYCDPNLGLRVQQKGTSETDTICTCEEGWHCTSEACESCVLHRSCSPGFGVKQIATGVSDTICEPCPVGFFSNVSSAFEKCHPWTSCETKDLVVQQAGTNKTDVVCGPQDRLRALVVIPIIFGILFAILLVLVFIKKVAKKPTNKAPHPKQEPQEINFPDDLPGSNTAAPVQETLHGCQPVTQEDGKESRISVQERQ

human-CD40 monomer [5] = molecular target: T5, human-CD40 monomer; assay: SPR, Ab captured on protein A, CD40 monomer analyte; remark: listed apart in the source
Description: These chimeric antibodies were tested for CD40 and FcgR binding by SPR, as well as for iDC activation.

binding result (hCD32a-H131-His): binds | binding result (hCD32a-R131-His): binds | binding result (hCD32b-His): binds | binding result (hCD16a-V158-His): binds | Kd (human-CD40 monomer [1]): 6.7 nM | koff (human-CD40 monomer [1]): 0.00046 s⁻¹ | kon (human-CD40 monomer [1]): 69000 M⁻¹ s⁻¹ | binding result (hCD64-His [2]): binds
B1: 5F11-45-IgG1f (antibody)
heavy: not shown
light: DIVLTQSPDSLAVSLGERATINCRASKNVDSYGNSFMHWYQQKPGQPPKLLIYRASNLESGVPDRFSGSGSGTDFTLTISSLQAEDVAVYYCQQSNEDPLTFGQGTKLEIKRTVAAPSVFIFPPSDEQLKSGTASVVCLLNNFYPREAKVQWKVDNALQSGNSQESVTEQDSKDSTYSLSSTLTLSKADYEKHKVYACEVTHQGLSSPVTKSFNRGEC
notes: Humanized anti-CD40, wild type human IgG1f

binding result (hCD32a-H131-His): binds | binding result (hCD32a-R131-His): binds | binding result (hCD32b-His): binds | Kd (human-CD40 monomer [1]): 6.6 nM | koff (human-CD40 monomer [1]): 0.00047 s⁻¹ | kon (human-CD40 monomer [1]): 71000 M⁻¹ s⁻¹
B2: 5F11-45-SE (antibody, human IgG1, kappa)
heavy: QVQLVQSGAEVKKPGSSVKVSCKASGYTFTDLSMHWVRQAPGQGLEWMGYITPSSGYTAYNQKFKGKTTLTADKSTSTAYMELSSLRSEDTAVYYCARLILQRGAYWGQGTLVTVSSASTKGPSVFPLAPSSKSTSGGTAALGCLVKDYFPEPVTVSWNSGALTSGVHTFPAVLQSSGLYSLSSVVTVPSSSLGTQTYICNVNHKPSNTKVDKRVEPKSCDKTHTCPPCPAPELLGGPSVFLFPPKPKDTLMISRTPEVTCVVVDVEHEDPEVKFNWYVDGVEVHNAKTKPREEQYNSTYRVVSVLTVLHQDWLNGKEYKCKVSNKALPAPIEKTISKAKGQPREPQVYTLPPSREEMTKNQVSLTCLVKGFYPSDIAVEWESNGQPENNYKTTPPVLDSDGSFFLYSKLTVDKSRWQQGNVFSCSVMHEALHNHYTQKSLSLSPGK
light: B1 light
notes: also called S267E variant

binding result (hCD32b-His): binds | Kd (human-CD40 monomer [1]): 3.9 nM | koff (human-CD40 monomer [1]): 0.0003 s⁻¹ | kon (human-CD40 monomer [1]): 79000 M⁻¹ s⁻¹
B3: 5F11-45-V11 (antibody, human IgG1, kappa)
heavy: QVQLVQSGAEVKKPGSSVKVSCKASGYTFTDLSMHWVRQAPGQGLEWMGYITPSSGYTAYNQKFKGKTTLTADKSTSTAYMELSSLRSEDTAVYYCARLILQRGAYWGQGTLVTVSSASTKGPSVFPLAPSSKSTSGGTAALGCLVKDYFPEPVTVSWNSGALTSGVHTFPAVLQSSGLYSLSSVVTVPSSSLGTQTYICNVNHKPSNTKVDKRVEPKSCDKTHTCPPCPAPELLGDDSVFLFPPKPKDTLMISRTPEVTCVVVDVSDEDGEVKFNWYVDGVEVHNAKTKPREEQYNSTYRVVSVLTVLHQDWLNGKEYKCKVSNKALPRPIEKTISKAKGQPREPQVYTLPPSREEMTKNQVSLTCLVKGFYPSDIAVEWESNGQPENNYKTTPPVLDSDGSFFLYSKLTVDKSRWQQGNVFSCSVMHEALHNHYTQKSLSLSPGK
light: B1 light
notes: Control with enhanced selectivity for hCD32b

binding result (hCD64-His [3]): binds | IC50 for inhibition of proliferation of B cells, CD40L Trimer [4]: 0.0034 µg/mL | IC50 for inhibition of proliferation of B cells, CHO CD40L [4]: 0.0184 µg/mL | Kd (human-CD40 monomer [5]): 2.6 nM | koff (human-CD40 monomer [5]): 0.00026 s⁻¹ | kon (human-CD40 monomer [5]): 97000 M⁻¹ s⁻¹
B4: Y1238-P238K (antibody, human IgG1, kappa)
heavy: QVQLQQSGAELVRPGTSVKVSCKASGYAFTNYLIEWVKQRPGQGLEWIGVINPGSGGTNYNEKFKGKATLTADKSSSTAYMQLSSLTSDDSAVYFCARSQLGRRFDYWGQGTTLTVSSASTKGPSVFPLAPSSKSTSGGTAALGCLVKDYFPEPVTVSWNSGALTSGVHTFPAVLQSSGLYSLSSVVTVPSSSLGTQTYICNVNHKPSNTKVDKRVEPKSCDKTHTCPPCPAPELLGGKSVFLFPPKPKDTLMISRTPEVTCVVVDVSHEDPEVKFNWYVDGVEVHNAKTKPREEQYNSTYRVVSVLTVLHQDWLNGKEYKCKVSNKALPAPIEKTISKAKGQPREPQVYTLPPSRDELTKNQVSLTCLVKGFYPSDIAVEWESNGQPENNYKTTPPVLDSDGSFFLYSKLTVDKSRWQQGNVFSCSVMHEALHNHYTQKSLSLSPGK
light: DIVMTQSHKFMSTSVGDRVSITCKASQDVRTGVAWYQQKPGQSPKLLIYSASYRNTGVPDRFTGSRSGTDFTFTISSVQAEDLAVYYCQQHYSPPYTFGGGTKLEIKRTVAAPSVFIFPPSDEQLKSGTASVVCLLNNFYPREAKVQWKVDNALQSGNSQESVTEQDSKDSTYSLSSTLTLSKADYEKHKVYACEVTHQGLSSPVTKSFNRGEC
notes: Chimeric; also called chimeric Y1238-P238K

binding result (hCD64-His [3]): binds | IC50 for inhibition of proliferation of B cells, CD40L Trimer [4]: 0.0036 µg/mL | IC50 for inhibition of proliferation of B cells, CHO CD40L [4]: 0.017 µg/mL | Kd (human-CD40 monomer [5]): 2.5 nM | koff (human-CD40 monomer [5]): 0.00024 s⁻¹ | kon (human-CD40 monomer [5]): 97000 M⁻¹ s⁻¹
B5: Y1238-N297A (antibody, human IgG1, kappa, N297A)
heavy: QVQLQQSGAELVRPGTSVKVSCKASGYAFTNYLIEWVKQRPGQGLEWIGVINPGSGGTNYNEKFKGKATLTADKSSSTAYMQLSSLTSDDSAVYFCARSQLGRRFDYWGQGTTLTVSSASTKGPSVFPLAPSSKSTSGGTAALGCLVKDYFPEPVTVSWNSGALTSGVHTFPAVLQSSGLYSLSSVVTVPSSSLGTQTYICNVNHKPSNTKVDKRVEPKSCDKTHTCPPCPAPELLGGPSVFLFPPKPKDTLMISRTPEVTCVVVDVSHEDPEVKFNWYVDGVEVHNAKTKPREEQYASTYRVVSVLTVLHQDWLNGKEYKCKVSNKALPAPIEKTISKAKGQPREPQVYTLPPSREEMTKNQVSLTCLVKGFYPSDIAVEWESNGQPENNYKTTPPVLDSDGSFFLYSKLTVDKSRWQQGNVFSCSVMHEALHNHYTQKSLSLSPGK
light: B4 light
notes: Chimeric; also called chimeric Y1238-N297A

binding result (hCD64-His [3]): binds | Kd (human-CD40 monomer [5]): 2.3 nM | koff (human-CD40 monomer [5]): 0.00023 s⁻¹ | kon (human-CD40 monomer [5]): 100000 M⁻¹ s⁻¹
B6: Y1238-CTza (antibody, human IgG1, kappa)
heavy: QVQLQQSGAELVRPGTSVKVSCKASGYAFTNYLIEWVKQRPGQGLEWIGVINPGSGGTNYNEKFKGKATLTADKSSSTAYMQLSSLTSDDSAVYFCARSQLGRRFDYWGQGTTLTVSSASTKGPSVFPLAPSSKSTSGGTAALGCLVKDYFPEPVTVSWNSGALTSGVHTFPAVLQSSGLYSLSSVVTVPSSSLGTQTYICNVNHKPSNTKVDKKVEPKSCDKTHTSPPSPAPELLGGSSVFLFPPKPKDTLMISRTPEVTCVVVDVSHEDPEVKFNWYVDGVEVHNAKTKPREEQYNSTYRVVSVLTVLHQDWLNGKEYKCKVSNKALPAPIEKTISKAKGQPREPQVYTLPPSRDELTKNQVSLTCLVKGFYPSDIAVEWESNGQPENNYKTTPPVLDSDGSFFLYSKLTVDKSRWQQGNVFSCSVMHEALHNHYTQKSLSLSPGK
light: B4 light
notes: Chimeric; also called chimeric Y1238 CTza
